Publication PMC8285524, “Selective targeting of ligand-dependent and -independent signaling by GPCR conformation-specific anti-US28 intrabodies” (Nature Communications, 2021)

Assays:
[1] = molecular target: NLuc-US28-Irr Nb (human cytomegalovirus (HCMV)) (UniProt P69332); assay: FRET or BRET; BRET-based saturation binding of Alexa647-labeled chemokine (0.1 pM-10 nM) to 100 ng membranes with NLuc-US28 constructs; HBSS with 0.05% BSA, 1 h at RT, 10 µM furimazine
[2] = molecular target: NLuc-US28-Nb7 (human cytomegalovirus (HCMV)) (UniProt P69332); assay: as above
[3] = molecular target: NLuc-US28-VUN103 (human cytomegalovirus (HCMV)) (UniProt P69332); assay: as above
[4] = molecular target: NLuc-US28 WT (human cytomegalovirus (HCMV)), P69332; assay: as above
[5] = molecular target: T1, US28 wildtype (human cytomegalovirus (HCMV), UniProt P69332 1-354, Strain: VHL/E is stated for some constructs, but its sequence is neither printed nor among the candidates. The AD169 entry is used as the closest wild type, so a few strain-specific residues may diffe); assay: radioligand binding; as a1, displacement of 125I-CCL5, membranes of HEK293T cells co-expressing US28 WT and the intrabody Nb7-mVenus; details: one partner purified
T1 chain: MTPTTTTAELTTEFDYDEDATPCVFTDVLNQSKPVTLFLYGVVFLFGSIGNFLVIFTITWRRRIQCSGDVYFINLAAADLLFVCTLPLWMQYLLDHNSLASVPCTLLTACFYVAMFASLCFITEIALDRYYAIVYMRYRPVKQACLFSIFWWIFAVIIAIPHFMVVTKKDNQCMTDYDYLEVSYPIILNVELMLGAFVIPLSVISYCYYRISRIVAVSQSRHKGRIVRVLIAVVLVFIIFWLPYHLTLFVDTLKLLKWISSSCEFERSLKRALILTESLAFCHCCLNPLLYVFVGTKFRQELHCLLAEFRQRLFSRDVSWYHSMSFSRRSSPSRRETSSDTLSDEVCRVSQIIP

[6] = molecular target: T1, US28 wildtype; assay: radioligand binding; as a1, displacement of 125I-CCL5, membranes of HEK293T cells co-expressing US28 WT and the intrabody VUN103-mVenus; details: one partner purified
[7] = molecular target: T1, US28 wildtype; assay: radioligand binding; displacement of 100 pM 125I-CX3CL1 or 200 pM 125I-CCL5 from 3 µg US28-expressing membranes (no intrabody) by unlabeled ligand; HEPES binding buffer pH 7.4, 0.1 M NaCl, 0.5% BSA; 2 h at room temperature; GF/C filtration; details: one partner purified

Molecule “CX3CL1-Alexa647 (from UniProt P78423 25-341) (ligand)” has a pKD [1] of 9.6, a pKD [2] of 10.4 and a pKD [3] of 9.6.

B1: CX3CL1-Alexa647, P78423 25-341 (ligand)
chain: QHHGVTKCNITCSKMTSKIPVALLIHYQQNQASCGKRAIILETRQHRLFCADPKEQWVKDAMQHLDRQAAALTRNGGTFEKQIGEVKPRTTPAAGGMDESVVLEPEATGESSSLEPTPSSQEAQRALGTSPELPTGVTGSSGTRLPPTPKAQDGGPVGTELFRVPPVSTAATWQSSAPHQPGPSLWAEAKTSEAPSTQDPSTQASTASSPAPEENAPSEGQRVWGQGQSPRPENSLEREEMGPVPAHTDAFQDWGPGSMAHVSVVPVSSEGTPSREPVASGSWTPKAEEPIHATMDPQRLGVLITPVPDAQAATRRQ
modifications: here or on the partner: Alexa Fluor 647 label
B1 gave a pKD [4] of 9.6.

B2: CX3CL1 (unlabeled) (ligand, UniProt P78423 25-341, looked up)
chain: B1 chain
notes: CX3CL1 (fractalkine), chemokine ligand of US28; also called fractalkine; source: bought: PeproTech (stated for the BRET assays)
In the case of B2, the pKi [5] is reported as 10.7, the pKi [6] is reported as 9.7 and the pKi [7] is reported as 9.9.
